Measurements as given in patent US20240084276.
Residue numbers refer to the chain shown, from its start.

How the values were obtained:
Assay in all cases: cell_activity
[1] = system: T1, MIT 25-26L.35 (synthetic construct); settings: 500 ng mRNA, FlpIn CHO
T1 sequence: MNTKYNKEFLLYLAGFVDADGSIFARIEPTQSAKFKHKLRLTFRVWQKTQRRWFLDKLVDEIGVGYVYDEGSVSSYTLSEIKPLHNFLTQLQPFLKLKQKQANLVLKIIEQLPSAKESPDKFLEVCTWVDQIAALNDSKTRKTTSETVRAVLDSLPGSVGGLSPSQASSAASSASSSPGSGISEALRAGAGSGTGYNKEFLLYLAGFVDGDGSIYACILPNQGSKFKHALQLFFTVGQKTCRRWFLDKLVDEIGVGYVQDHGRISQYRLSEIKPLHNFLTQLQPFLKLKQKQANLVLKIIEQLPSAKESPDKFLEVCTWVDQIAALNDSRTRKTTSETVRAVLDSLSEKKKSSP

[2] = system: T2, MIT 25-26x.48 (synthetic construct); settings: 500 ng mRNA, FlpIn CHO
T2 sequence: T1 sequence with W46H, E70T, S75D, Q259N, H261F, R263S, H276Y

[3] = system: T3, MIT 25-26x.91 (synthetic construct); settings: 500 ng mRNA, FlpIn CHO; 16% in repeat (FIG. 4)
T3 sequence: T1 sequence with A19S, W46H, E70T, S75D, E80Q, Q259H, R263T

MIT 25-26 wild-type site (m.3243A)
activity [1]: 2 % indels
activity [2]: 44 % indels
activity [3]: 20 % indels
